# Measured values reported in patent US8669352 (PANGENETICS B V, dated 2014).
# Numbering of substitutions follows the chain as printed. Numbers in names are those of the source. Where “and” joins values, the source holds several entries; their conditions need not be identical. Identical values can stand only once.
# B1: PG102 (I29L variant) (antibody, human IgG4, kappa, V domains shown)
# VH: QVKLQESGPGLVKPSETLSITCTVSGFSLSRYSVYWIRQPPGKGPEWMGMMWGGGSTDYSTSLKSRLTISKDTSKSQVSLKMNSLRTDDTAMYYCVRTDGDYWGQGTTVTVSS
# VL: ELQLTQSPLSLPVTLGQPASISCRSSQSLANSNGNTYLHWYLQRPGQSPRLLIYKVSNRFSGVPDRFSGSGSGTDFTLKISRVEAEDVGVYYCSQSTHVPWTFGGGTKLEIKR
# notes: Human IgG4/kappa; also called 29L-37I
# B2: ch5D12 (PG100) (antibody, V domains shown)
# VH: QVKLEESGPGLVAPSQSLSITCTVSGFSLSRYSVYWVRQPPGKGLEWLGMMWGGGSTDYNSALKSRLSISKDTSKSQVFLKMNSLRTDDTAMYYCVRTDGDYWGQGTSVTVSS
# VL: B1 VL with T14S, Q17D, P18Q, A30V, R44K, R50K, V88L, Y92F
# notes: also called chimeric 5D12
# What was measured:
# human CD40 [1] = biological target: T1, human CD40 (human, UniProt P25942 21-277); test: cell-based or functional assay
# T1 sequence (P25942 21-277): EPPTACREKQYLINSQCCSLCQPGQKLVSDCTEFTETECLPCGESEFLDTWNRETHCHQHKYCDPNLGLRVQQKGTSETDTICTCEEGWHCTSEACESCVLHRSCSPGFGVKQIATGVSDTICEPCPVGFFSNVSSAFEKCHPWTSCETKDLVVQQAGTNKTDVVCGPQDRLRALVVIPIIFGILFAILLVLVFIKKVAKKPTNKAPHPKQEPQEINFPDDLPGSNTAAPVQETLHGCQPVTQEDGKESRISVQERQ
# human CD40 [2] = biological target: T1, human CD40; test: flow cytometry on JY cells; competitor 1 µg/mL PG102-PE; n=4
# Description: (§1) Competitive Inhibition of ch5D12 (PG100)-PE and PG102-PE Binding to JY Cells Expressing Human CD40 Using Unlabelled Anti-CD40 Antibody Materials and Methods JY cells (Epstein—Barr virus-transformed human B lymphoblastoid cell line) were grown in Iscove's Modified Dulbecco's Medium (IMDM) containing 10% heat-inactivated foetal calf serum (FCS), 2 mM L-glutamine and 50 μg/mL gentamycin in an air-humidified atmosphere containing 5% CO_2, at 37° C. Cells were harvested on the day of flow cytometric measurements.
# (§2) Unlabelled ch5D12 (PG100) (Batch 4) and PG102 (Batch 2) antibodies were used in these experiments. Both antibodies were also used in PE-labelled form for direct determination of binding to JY cells by flow cytometry. Antibodies were custom-labelled with PE by AbD Serotec (Oxford, UK). For each FACS analysis the following protocol was used. JY cells were harvested from cell culture and counted. […] Cells were washed followed by flow cytometric analysis in which the MFI at every concentration was determined using a FACScan flow cyometer (Becton & Dickinson). Five thousand events/sample were measured and analyzed using CellQuest® software (Becton & Dickinson).
# [3] = biological target: T2, huCD40-muIg (Ancell, catalogue number 504-020) (human, UniProt P25942 21-193); test: ELISA on coated human CD40-Fc; half-maximal binding concentration
# T2 construct: also called CD40-Fc; human CD40-Fc; not shown: murine Ig part
# T2 sequence (P25942 21-193): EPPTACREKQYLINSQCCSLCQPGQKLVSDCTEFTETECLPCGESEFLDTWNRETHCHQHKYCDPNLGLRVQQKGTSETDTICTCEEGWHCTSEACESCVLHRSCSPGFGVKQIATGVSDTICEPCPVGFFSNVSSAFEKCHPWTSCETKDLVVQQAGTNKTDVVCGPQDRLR
# Description: (§3) Plates were washed 3 times with 200 μL/well wash buffer (0.05% Tween-20 in PBS). Subsequently, plates were blocked with 200 μL/well blocking buffer (5% BSA Fraction V [Roche, catalogue number 735094] in wash buffer) and incubated for 1 h at 37° C. (humid environment). Plates were washed 3 times with wash buffer. Test antibodies (ch5D12 (PG100), PG102, and negative control chimaeric anti-huCD86 antibody chFUN-1) were diluted in the range 0-1200 ng/mL in blocking buffer and transferred to assay plates in a final volume of 100 μL/well, followed by incubation for 1 h at 37° C. (humid environment). Plates were washed 3 times with wash buffer followed by addition of 100 μl/well goat anti-human kappa-AP detection antibody (Southern Biotech Associates catalogue number 2060-0) diluted 1:1000 in blocking buffer. Plates were incubated for 1 h at 37° C. in a humid environment before washing 3 times with wash buffer and a further single wash with PBS.
# [4] = biological target: T3, Recombinant human CD40 extracellular domain fused to human IgG1-Fc domain (huCD40-Fc; R&D Systems 149-CD-50) (human, UniProt P25942 21-193); test: SPR (Biacore 3000), immobilised huCD40-Fc, Langmuir (1:1) model
# T3 construct: extracellular domain; Bought reagent; also called human CD40-Fc; not shown: human IgG1-Fc domain
# T3 sequence (P25942 21-193): as above
# Description: (§4) The kinetics of ch5D12 (PG100) and PG102 (I29L variant) binding to human CD40 were compared by surface plasmon resonance at a constant temperature of 25.0° C., using a Biacore 3000 instrument. Recombinant human CD40 extracellular domain fused to human IgG1-Fc domain (huCD40-Fc; R&D Systems catalogue number 149-CD-50) was used as the target antigen in these experiments. HuCD40-Fc (1 µg/mL in 10 mM acetate buffer, pH 5.0) was coupled via the amine groups of Lys residues to carbodiimide-activated Biacore CM5 chips, resulting in an antigen immobilization level of 127.4 RU. For kinetic analyses, dilution series of ch5D12 (PG100) and PG102 (range 10.0 µg/mL to 0.313 µg/mL) were prepared in Biacore Running Buffer (HEPES-buffered saline containing EDTA and surfactant; HBS-EP). Kinetic analyses were performed at a flow rate of 30 µL/min. Samples were allowed to bind for 4 min and to dissociate for 5 min, at the same flow rate. The chip surface was then regenerated for 30 seconds using 30 mM NaOH and a baseline re-established in HBS-EP for 2.5 min before injection of the next sample. […]
# (§5) BIAcore control software (Version 3.2) was used for data collection and BIAevaluation software (Version 4.1) was used for analysis of kinetic data. Binding parameters were calculated using two different models of molecular interaction: a bivalent analyte model and Langmuir 1:1 binding model.
# human CD40 [5] = biological target: T1, human CD40; test: flow cytometry on JY cells; competitor 1 µg/mL ch5D12 (PG100)-PE; n=4
# Description: as §1, §2
# [6] = biological target: T3, Recombinant human CD40 extracellular …; test: SPR (Biacore 3000), immobilised huCD40-Fc, Langmuir (1:1) model, ka
# Description: as §4, §5
# [7] = biological target: T3, Recombinant human CD40 extracellular …; test: SPR (Biacore 3000), immobilised huCD40-Fc, Langmuir (1:1) model, kd
# Description: as §4, §5
# [8] = biological target: T3, Recombinant human CD40 extracellular …; test: SPR (Biacore 3000), immobilised huCD40-Fc, bivalent binding (1:2) model
# Description: as §4, §5
# [9] = biological target: T3, Recombinant human CD40 extracellular …; test: SPR (Biacore 3000), immobilised huCD40-Fc, bivalent binding (1:2) model, ka1
# Description: as §4, §5
# [10] = biological target: T3, Recombinant human CD40 extracellular …; test: SPR (Biacore 3000), immobilised huCD40-Fc, bivalent binding (1:2) model, kd1
# Description: as §4, §5
# human CD40 [11] = biological target: T1, human CD40; test: flow cytometry competition on JY cells against 1 µg/mL PE-labelled ch5D12 (PG100) or PG102; range told of both antibodies
# Description: as §1, §2
# human CD40 [12] = biological target: T1, human CD40; test: FACS on JY cells expressing CD40; 100 µl PER.C6 transient supernatant harvested after 48 h (antibody concentration not equalised), FITC anti-human IgG 1/100; in the same figure Mock Control Mean 11.25 / Median 8.74, FACS control (secondary only) Mean 10.18 / Median 8.74
# Description: FIG. 8. FACS analysis using JY cells. PER.C6 cell supernatant of the transient expressed variants (Q5E, K13A, E16Q, T17S, I29L, 37V, P45L, M48L, STS60NSA, T68S, S79F, and T108S) of 5D12 was harvested after 48 h. As control also supernatant was harvested of cells transfected with either ch5D12 or D15D12 together with supernatant from mock (no plasmid) transfected cells. Binding of expressed antibodies was tested by FACS using JY cells together with anti-human FITC labelled secondary antibody (1/100 diluted). As FACS control JY cells were incubated with only the secondary FITC labelled antibody.
# By FACS analysis the antigen specificity of the expressed antibodies was analyzed. JY cells are EBV transformed human B-cells, which express CD40. Briefly, 100,000 JY cells were incubated with 100 µl supernatant from the transient expression experiment at 4° C. for 20 minutes. To remove unbound antibody cells were washed with PBS containing 0.05% NaAzide and 1% BSA. As secondary antibody 1/100 diluted FITC labeled anti-human IgG (Jackson 109-095-127) was used. After 20 minutes incubation at 4° C. cells were washed. Finally cell samples were measured on a FACScan (BD).
# [13] = biological target: T2, huCD40-muIg (Ancell, catalogue number …); test: ELISA on coated human CD40-Fc (huCD40-muIg per methods); n=4
# Description: as §3, with “Plates were incubated for 1 h at 37° C. in a humid environment before washing 3 times with wash buffer and a further single wash with PBS.” left out
# PNP substrate was prepared by adding 1 tablet p-Nitrophenyl Phosphate tablets (Sigma, catalogue number N-2765) in 15 mL PNP substrate buffer (12.1 g Tris, 5.84 g NaCl, 1.02 g MgCl_2.6H_2O in 1 L H_2O (adjusted to pH 9.6 with HCl). PNP substrate was added to assay plates at 100 μL/well. Plates were incubated for several minutes (max 30 min) at 37° C. to allow colour development before the reaction was stopped by addition of 3M NaOH. Colour intensity was determined at 405 nm using a micro plate reader (Biorad, model 550).
# [14] = biological target: T3, Recombinant human CD40 extracellular …; test: SPR (Biacore 3000), immobilised huCD40-Fc, bivalent analyte model; the text value differs from the table's 5.29 × 10^-9 M; bivalent analyte model, not Langmuir
# Description: as §4, §5
Binder,-log IC50 for inhibition of IL-8 release by IFN-gamma-pulsed THP-1 cells co-cultured with Jurkat 39.8/50 cells (human CD40 [1]),-log IC50 (human CD40 [2]),EC50 [3] [µg/mL],Kd [4] [nM],-log IC50 (human CD40 [5]),kon [6] [M⁻¹ s⁻¹],koff [7] [s⁻¹],Kd [8] [nM],kon [9] [M⁻¹ s⁻¹],koff [10] [s⁻¹],IC50 (human CD40 [11]),Mean (FL1-H) (human CD40 [12]),Median (FL1-H) (human CD40 [12]),-log half-maximal binding concentration [13],Kd [14] [nM]
B1,8.42 -log10 (unit not printed),7.65 -log10 of g/mL (per p-0205: ~20-30 ng/mL),~0.03,0.237,7.63 -log10 of g/mL (per p-0205: ~20-30 ng/mL),2.51e+06,0.000596,5.41,782000,0.00247,0.02 µg/mL to 0.03 µg/mL (2×) and 0.13 nM to 0.2 nM (2×),108,91.8,,
B2,8.28 -log10 (unit not printed),7.54 -log10 of g/mL (per p-0205: ~20-30 ng/mL),~0.03,0.271,7.5 -log10 of g/mL (per p-0205: ~20-30 ng/mL),1.88e+06,0.000507,5.29,641000,0.0016,0.02 µg/mL to 0.03 µg/mL (2×) and 0.13 nM to 0.2 nM (2×),,,7.54 -log10 of g/ml (per caption: 7.45 ~ 35 ng/ml),5.25
